Test results taken from patent US20250075006A1 (SHANDONG SIMCERE BIOPHARMACEUTICAL, published 2025).

What was measured:
[1] = target: T1, human GUCY2C protein, full length, on cells (human, UniProt P25092 24-1073); test: FACS on 293T-hGUCY2C cells, MFI
T1 construct: whole, on cells; also called endogenous tumor cells HT55
Procedure: (§1) Then a complete medium was added to stop the digestion, and the cells were blown into a single cell suspension. After counting, the cells were centrifuged, and the cell pellet was resuspended to 2×10⁶ cells/mL in an FACS buffer (PBS+2% fetal bovine serum), and added to a 96-well FACS reaction plate at 100 μL/well. The plate was centrifuged, and the supernatant was discarded. An antibody sample to be tested (diluted in a 3-fold gradient from a starting concentration of 100 nM) was added at 50 μL/well and uniformly mixed with the cells, and the mixture was incubated at 4° C. for 1 h. […] The results were tested and analyzed by FACS (FACS Canto™, purchased from BD) after the plate was centrifuged and washed 3 times with a PBS buffer and resuspended with 100 μL of PBS. Data analysis was performed by software (FlowJo) to obtain the mean fluorescence intensity (MFI) of the cells. Then, analysis was performed by software (GraphPad Prism8), data were fitted, and EC50 values were calculated.

[2] = target: T1, human GUCY2C protein, full length, on …; test: FACS on 293T-hGUCY2C cells, MFI; remark: listed apart in the source
Procedure: as §1, with “5-fold” for “3-fold”, “calculated. As shown in A-C in FIG. 14, PF1608-hIgG1 binds strongly to GUCY2C at the protein level, but weakly at the cellular level. The humanized antibodies of the present application are all capable of binding effectively to recombinant cells expressing human GUCY2C protein and substantially maintain the equivalent binding ability of the recombinant antibodies.” for “calculated.”

[3] = target: T1, human GUCY2C protein, full length, on …; test: FACS on 293T-hGUCY2C cells, MFI; remark: listed apart in the source
Procedure: as §1, with “5-fold” for “3-fold”, “calculated. As shown in A-C in FIG. 14, PF1608-hIgG1 binds strongly to GUCY2C at the protein level, but weakly at the cellular level. The humanized antibodies of the present application are all capable of binding effectively to recombinant cells expressing human GUCY2C protein and substantially maintain the equivalent binding ability of the recombinant antibodies.” for “calculated.”

[4] = target: T1, human GUCY2C protein, full length, on …; test: FACS on 293T-hGUCY2C cells, MFI; remark: listed apart in the source
Procedure: as §1, with “5-fold” for “3-fold”, “calculated. As shown in A-C in FIG. 14, PF1608-hIgG1 binds strongly to GUCY2C at the protein level, but weakly at the cellular level. The humanized antibodies of the present application are all capable of binding effectively to recombinant cells expressing human GUCY2C protein and substantially maintain the equivalent binding ability of the recombinant antibodies.” for “calculated.”

[5] = target: T1, human GUCY2C protein, full length, on …; test: FACS on HT55 tumor cells (endogenous GUCY2C), MFI

T1 sequence (P25092 24-1073): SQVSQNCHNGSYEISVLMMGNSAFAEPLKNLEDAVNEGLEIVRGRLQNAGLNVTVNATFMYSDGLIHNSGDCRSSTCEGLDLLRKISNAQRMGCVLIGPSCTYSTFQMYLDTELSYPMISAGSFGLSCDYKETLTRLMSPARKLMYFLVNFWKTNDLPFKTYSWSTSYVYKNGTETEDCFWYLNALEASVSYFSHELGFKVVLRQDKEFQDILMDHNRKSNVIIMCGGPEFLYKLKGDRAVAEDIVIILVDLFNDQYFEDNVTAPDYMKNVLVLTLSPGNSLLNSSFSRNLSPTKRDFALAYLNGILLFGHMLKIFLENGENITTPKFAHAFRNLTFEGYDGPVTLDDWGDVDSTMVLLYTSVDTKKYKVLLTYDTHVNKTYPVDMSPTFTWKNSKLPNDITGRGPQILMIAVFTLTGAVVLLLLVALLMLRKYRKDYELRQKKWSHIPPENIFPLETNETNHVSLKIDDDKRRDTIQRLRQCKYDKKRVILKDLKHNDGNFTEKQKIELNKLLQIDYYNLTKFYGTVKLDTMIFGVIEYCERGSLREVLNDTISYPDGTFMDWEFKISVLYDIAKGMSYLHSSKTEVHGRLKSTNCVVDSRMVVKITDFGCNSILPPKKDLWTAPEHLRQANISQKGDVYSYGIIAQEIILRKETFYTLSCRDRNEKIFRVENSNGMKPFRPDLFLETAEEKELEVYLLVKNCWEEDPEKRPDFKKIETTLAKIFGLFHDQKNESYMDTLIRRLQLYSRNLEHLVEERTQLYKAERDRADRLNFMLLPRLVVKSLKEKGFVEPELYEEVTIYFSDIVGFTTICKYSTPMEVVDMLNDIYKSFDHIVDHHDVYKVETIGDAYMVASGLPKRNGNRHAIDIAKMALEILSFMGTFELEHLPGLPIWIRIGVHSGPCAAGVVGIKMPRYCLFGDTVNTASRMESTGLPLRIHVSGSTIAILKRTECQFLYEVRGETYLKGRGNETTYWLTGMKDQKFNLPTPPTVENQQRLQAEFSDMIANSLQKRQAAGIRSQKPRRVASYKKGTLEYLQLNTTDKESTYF

B1: 5F9-hIgG1 (antibody, V domains shown)
VH: QVQLQQWGAGLLKPSETLSLTCAVFGGSFSGYYWSWIRQPPGKGLEWIGEINHRGNTNDNPSLKSRVTISVDTSKNQFALKLSSVTAADTAVYYCARERGYTYGNFDHWGQGTLVTVSS
VL: EIVMTQSPATLSVSPGERATLSCRASQSVSRNLAWYQQKPGQAPRLLIYGASTRATGIPARFSGSGSGTEFTLTIGSLQSEDFAVYYCQQYKTWPRTFGQGTNVEIKR
notes: also called positive control antibody
With B1 the “EC50 (read off the curve)” value [1] was roughly 0.9 nM, the “EC50 (read off the curve)” value [2] was roughly 1 nM and the “EC50 (read off the curve)” value [3] was roughly 1 nM. The “EC50 (read off the curve)” value [4] was roughly 1 nM and the “EC50 (read off the curve)” value [5] was roughly 0.3 nM.
